{"source": "patent US20210363259A1", "about": "(Biogen, published 2021)", "key": {"[1]": {"target": "T1, integrin αvβ6 (human, UniProt P06756 31-1048; P18564 22-788)", "T1 construct": "also called the antigen", "T1 sequence (P06756 31-1048, chain 1 of 2)": "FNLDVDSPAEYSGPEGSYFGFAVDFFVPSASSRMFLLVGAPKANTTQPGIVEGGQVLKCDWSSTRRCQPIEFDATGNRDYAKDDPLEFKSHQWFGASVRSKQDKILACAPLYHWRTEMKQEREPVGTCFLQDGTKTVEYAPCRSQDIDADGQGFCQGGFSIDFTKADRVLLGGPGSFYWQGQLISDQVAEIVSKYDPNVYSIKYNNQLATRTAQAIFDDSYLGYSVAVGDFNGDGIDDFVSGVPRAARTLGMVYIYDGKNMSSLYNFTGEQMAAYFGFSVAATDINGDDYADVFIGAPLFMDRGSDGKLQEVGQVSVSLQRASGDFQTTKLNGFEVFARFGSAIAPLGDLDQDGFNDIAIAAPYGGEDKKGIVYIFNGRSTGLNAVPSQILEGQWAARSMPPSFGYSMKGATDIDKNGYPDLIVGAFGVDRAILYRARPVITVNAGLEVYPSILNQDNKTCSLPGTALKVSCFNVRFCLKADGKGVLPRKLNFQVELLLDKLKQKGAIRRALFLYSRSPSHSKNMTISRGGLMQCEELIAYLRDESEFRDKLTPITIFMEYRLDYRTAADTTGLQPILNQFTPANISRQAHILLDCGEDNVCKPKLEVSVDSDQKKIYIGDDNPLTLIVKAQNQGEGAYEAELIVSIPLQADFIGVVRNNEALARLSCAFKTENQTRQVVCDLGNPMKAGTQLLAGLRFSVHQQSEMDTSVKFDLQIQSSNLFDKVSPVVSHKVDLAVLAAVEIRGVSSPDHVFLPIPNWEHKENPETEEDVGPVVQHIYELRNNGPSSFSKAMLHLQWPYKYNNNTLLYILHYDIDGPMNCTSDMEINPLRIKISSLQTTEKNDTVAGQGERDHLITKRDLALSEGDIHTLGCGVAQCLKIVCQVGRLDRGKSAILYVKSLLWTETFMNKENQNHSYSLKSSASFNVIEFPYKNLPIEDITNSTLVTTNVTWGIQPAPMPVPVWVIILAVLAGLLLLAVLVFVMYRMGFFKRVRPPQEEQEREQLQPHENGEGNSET", "T1 sequence (P18564 22-788, chain 2 of 2)": "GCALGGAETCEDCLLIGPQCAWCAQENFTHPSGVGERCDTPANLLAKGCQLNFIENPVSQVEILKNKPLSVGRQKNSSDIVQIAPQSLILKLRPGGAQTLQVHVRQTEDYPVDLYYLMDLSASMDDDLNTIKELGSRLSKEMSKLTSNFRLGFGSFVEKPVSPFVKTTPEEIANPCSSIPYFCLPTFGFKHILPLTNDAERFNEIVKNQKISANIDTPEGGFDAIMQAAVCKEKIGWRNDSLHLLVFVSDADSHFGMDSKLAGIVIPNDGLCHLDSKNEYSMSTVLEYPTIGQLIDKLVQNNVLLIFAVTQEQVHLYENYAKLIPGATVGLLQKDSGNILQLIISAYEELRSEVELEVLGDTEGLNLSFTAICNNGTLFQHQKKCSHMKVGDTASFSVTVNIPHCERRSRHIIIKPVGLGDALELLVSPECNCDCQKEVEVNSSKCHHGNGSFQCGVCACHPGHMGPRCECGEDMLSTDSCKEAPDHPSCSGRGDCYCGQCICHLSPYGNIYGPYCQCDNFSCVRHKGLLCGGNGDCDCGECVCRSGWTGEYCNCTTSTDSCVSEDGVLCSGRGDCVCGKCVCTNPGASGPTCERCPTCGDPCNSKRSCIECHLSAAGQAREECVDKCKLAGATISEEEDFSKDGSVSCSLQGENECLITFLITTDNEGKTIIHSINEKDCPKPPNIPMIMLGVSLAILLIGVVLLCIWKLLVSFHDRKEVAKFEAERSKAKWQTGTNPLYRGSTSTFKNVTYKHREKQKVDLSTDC", "assay": "potency assay, binding relative to reference standard; stability sample, 3 months at 2-8° C."}, "[2]": {"target": "T1, integrin αvβ6", "assay": "potency assay, binding relative to reference standard; stability sample, 6 months at 2-8° C."}, "[3]": {"target": "T1, integrin αvβ6", "assay": "potency assay, binding relative to reference standard; stability sample, 9 months at 2-8° C."}, "[4]": {"target": "T1, integrin αvβ6", "assay": "potency assay, binding relative to reference standard; stability sample, 12 months at 2-8° C."}, "[5]": {"target": "T1, integrin αvβ6", "assay": "potency assay, binding relative to reference standard; stability sample, 24 months at 2-8° C."}, "[6]": {"target": "T1, integrin αvβ6", "assay": "DELFIA blocking assay, binding relative to reference standard; stability sample, 1 month at 2-8° C."}, "[7]": {"target": "T1, integrin αvβ6", "assay": "DELFIA blocking assay, binding relative to reference standard; stability sample, 0 months at 2-8° C."}, "[8]": {"target": "T1, integrin αvβ6", "assay": "DELFIA blocking assay, binding relative to reference standard; stability sample, 18 months at 2-8° C."}}}
{"binder": "STX-100 (antibody, human IgG1, kappa, V domains shown, Humanized human IgG1/human kappa monoclonal antibody; It was tested as drug product in citrate/arginine/methionine/PS80 formulations; also called BG00011; BG11) VH: EVQLVESGGGLVQPGGSLRLSCAASGFTFSRYVMSWVRQAPGKGLEWVASISSGGRMYYPDTVKGRFTISRDNAKNSLYLQMNSLRAEDTAVYYCARGSIYDGYYVFPYWGQGTLVTVSS VL: EIVLTQSPATLSLSPGERATLSCSASSSVSSSYLYWYQQKPGQAPRLLIYSTSNLASGIPARFSGSGSGTDFTLTISSLEPEDFAVYYCHQWSTYPPTFGGGTKVEIKR", "values": [{"measurement": "Potency, % Binding relative to Reference Standard", "setting": "[1]", "result": 102, "unit": "%"}, {"measurement": "Potency, % Binding relative to Reference Standard", "setting": "[2]", "result": 98, "unit": "%"}, {"measurement": "Potency, % Binding relative to Reference Standard", "setting": "[3]", "result": 95, "unit": "%"}, {"measurement": "Potency, % Binding relative to Reference Standard", "setting": "[4]", "result": 100, "unit": "%"}, {"measurement": "Potency, % Binding relative to Reference Standard", "setting": "[5]", "result": 106, "unit": "%"}, {"measurement": "DELFIA Blocking - Binding relative to Reference Standard", "setting": "[6]", "result": 100, "unit": "%"}, {"measurement": "DELFIA Blocking - Binding relative to Reference Standard", "setting": "[7]", "result": 101, "unit": "%"}, {"measurement": "DELFIA Blocking - Binding relative to Reference Standard", "setting": "[8]", "result": 96, "unit": "%"}]}
